Data taken from publication PMC2168396 (The EMBO Journal, 2007).
One block for each binder: values may come before it. Ends that are not written are not given here.

What was measured:
[1] = target: the molecule itself; assay: crystal structure
[2] = target: the molecule itself; assay: SEC + other: NMR
[3] = target: filamentous actin (F-actin) from rabbit skeletal muscle (rabbit, UniProt P68135 1-377); assay: co-sedimentation

co-sedimentation pellet (% of WT) [3]: 59 ± 5 % of WT
B1: talin 2300–2541 Q2388D (domain or fragment, mouse, UniProt P26039 2300-2541, looked up)
chain: DPTVIAENELLGAAAAIEAAAKKLEQLKPRAKPKEADESLNFEEQILEAAKSIAAATSALVKAASAAQRELVAQGKVGAIPANALDDGDWSQGLISAARMVAAATNNLCEAANAAVQGHASQEKLISSAKQVAASTAQLLVACKVKADQDSEAMKRLQAAGNAVKRASDNLVKAAQKAAAFEDQENETVVVKEKMVGGIAQIIAAQEEMLRKERELEEARKKLAQIRQQQYKFLPSELRDEH
stoichiometry N [2]: 2

co-sedimentation pellet (% of WT) [3]: 77 ± 5 % of WT
B3: talin 2300–2541 R2510A (domain or fragment, mouse, UniProt P26039 2300-2541, looked up)
chain: DPTVIAENELLGAAAAIEAAAKKLEQLKPRAKPKEADESLNFEEQILEAAKSIAAATSALVKAASAAQRELVAQGKVGAIPANALDDGQWSQGLISAARMVAAATNNLCEAANAAVQGHASQEKLISSAKQVAASTAQLLVACKVKADQDSEAMKRLQAAGNAVKRASDNLVKAAQKAAAFEDQENETVVVKEKMVGGIAQIIAAQEEMLAKERELEEARKKLAQIRQQQYKFLPSELRDEH
stoichiometry N [2]: 2

co-sedimentation pellet (% of WT) [3]: 95 ± 5 % of WT
B4: talin 2300–2541 V2376D (domain or fragment, mouse, UniProt P26039 2300-2541, looked up)
chain: DPTVIAENELLGAAAAIEAAAKKLEQLKPRAKPKEADESLNFEEQILEAAKSIAAATSALVKAASAAQRELVAQGKDGAIPANALDDGQWSQGLISAARMVAAATNNLCEAANAAVQGHASQEKLISSAKQVAASTAQLLVACKVKADQDSEAMKRLQAAGNAVKRASDNLVKAAQKAAAFEDQENETVVVKEKMVGGIAQIIAAQEEMLRKERELEEARKKLAQIRQQQYKFLPSELRDEH
stoichiometry N [2]: 2

co-sedimentation pellet (% of WT) [3]: 66 ± 14 % of WT
B5: talin 2300–2541 R2513A (domain or fragment, mouse, UniProt P26039 2300-2541, looked up)
chain: DPTVIAENELLGAAAAIEAAAKKLEQLKPRAKPKEADESLNFEEQILEAAKSIAAATSALVKAASAAQRELVAQGKVGAIPANALDDGQWSQGLISAARMVAAATNNLCEAANAAVQGHASQEKLISSAKQVAASTAQLLVACKVKADQDSEAMKRLQAAGNAVKRASDNLVKAAQKAAAFEDQENETVVVKEKMVGGIAQIIAAQEEMLRKEAELEEARKKLAQIRQQQYKFLPSELRDEH
stoichiometry N [2]: 2

co-sedimentation pellet (% of WT) [3]: 62 ± 13 % of WT
B6: talin 2300–2541 Q2437E (domain or fragment, mouse, UniProt P26039 2300-2541, looked up)
chain: DPTVIAENELLGAAAAIEAAAKKLEQLKPRAKPKEADESLNFEEQILEAAKSIAAATSALVKAASAAQRELVAQGKVGAIPANALDDGQWSQGLISAARMVAAATNNLCEAANAAVQGHASQEKLISSAKQVAASTAELLVACKVKADQDSEAMKRLQAAGNAVKRASDNLVKAAQKAAAFEDQENETVVVKEKMVGGIAQIIAAQEEMLRKERELEEARKKLAQIRQQQYKFLPSELRDEH
stoichiometry N [2]: 2

The remaining lines, values behind:

Binder: MVGGIAQIIAAQEEMLRKERELEEARKKLAQIRQQQYKFLPSELRDEH (domain or fragment, mouse, UniProt P26039 2494-2541, looked up, also: selenomethionine in derivative used for phasing) [talin 2494–2541 (dimerisation domain)]
binding result [1]: binds

B2: talin 2300–2541 Q2388R (domain or fragment, mouse, UniProt P26039 2300-2541, looked up)
chain: DPTVIAENELLGAAAAIEAAAKKLEQLKPRAKPKEADESLNFEEQILEAAKSIAAATSALVKAASAAQRELVAQGKVGAIPANALDDGRWSQGLISAARMVAAATNNLCEAANAAVQGHASQEKLISSAKQVAASTAQLLVACKVKADQDSEAMKRLQAAGNAVKRASDNLVKAAQKAAAFEDQENETVVVKEKMVGGIAQIIAAQEEMLRKERELEEARKKLAQIRQQQYKFLPSELRDEH
stoichiometry N [2]: 2
co-sedimentation pellet (% of WT) [3]: 102 ± 9 % of WT

B7: talin 2300–2541 V2444D (domain or fragment, mouse, UniProt P26039 2300-2541, looked up)
chain: DPTVIAENELLGAAAAIEAAAKKLEQLKPRAKPKEADESLNFEEQILEAAKSIAAATSALVKAASAAQRELVAQGKVGAIPANALDDGQWSQGLISAARMVAAATNNLCEAANAAVQGHASQEKLISSAKQVAASTAQLLVACKDKADQDSEAMKRLQAAGNAVKRASDNLVKAAQKAAAFEDQENETVVVKEKMVGGIAQIIAAQEEMLRKERELEEARKKLAQIRQQQYKFLPSELRDEH
stoichiometry N [2]: 2
co-sedimentation pellet (% of WT) [3]: 54 ± 10 % of WT

B8: talin 2334–2541 (upstream helix deleted) (domain or fragment, mouse, UniProt P26039 2334-2541, looked up)
chain: EADESLNFEEQILEAAKSIAAATSALVKAASAAQRELVAQGKVGAIPANALDDGQWSQGLISAARMVAAATNNLCEAANAAVQGHASQEKLISSAKQVAASTAQLLVACKVKADQDSEAMKRLQAAGNAVKRASDNLVKAAQKAAAFEDQENETVVVKEKMVGGIAQIIAAQEEMLRKERELEEARKKLAQIRQQQYKFLPSELRDEH
stoichiometry N [2]: 2
co-sedimentation pellet (% of WT) [3]: 262 ± 18 % of WT
